Reference: the nanobody polyreactivity screen of Harvey et al. (2022)

Experiment: yeast display, Sf9 membrane polyspecificity reagent, FACS + sequencing; frameworks hold sequencing errors
Procedure, shortened: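 Using colony PCR, genes from sorted yeast display clones were amplified, then sequenced on MiSeq at 2 × 250 and filtered by CDR length. The clones had been stained with 10% biotinylated, detergent-solubilized Sf9 membrane reagent for 1 hour at 4 °C and sorted by FACS into low and high (top ~1%) gates on anti-HA and streptavidin fluorescence. Polyreactivity labels come from the gate of origin.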

Sequence | polyreactivity (PSR sort gate)
QVQLVESGGRLVQAGGSLRLSCAASGSIFYYYAMGWYRQAPGKERELVAAINGGDTYYADSVKGRFTISRDNAKNTVYLQMNSLKPEDTAVYYCAAEGVTVEWDYDYLGQGTQVTVSS | low polyreactivity
QVQLVESGGRLVQAGGSLRLSCAASGSTFGWNAMGWYRQAPGKETELVAAISRSGGRTYYADSVKGRFTISRDNANNTVYLQMISLKPEVTAVYYCAADRSTTGGLRGYWGQGTQVTVSS | high polyreactivity
QVQLVESGGRLVQAGGSLRLSCAASGSTFIQNAMGWSRQAPGKDRELVAAITSGGGTNYADSVKGRFTISRDNAKNTVYLQMNSLKPEDTAVYYCAAEPFNYDDFWFGWEYLYDYWGQATQVTVSS | low polyreactivity
QVQLVESGGRLVQAGGSLRLSCAASGSTFTLYAMGWYRQAPGKERELVAAITWRGGSTFYADSVKGRFTISRDNAKNSVYLQMNSLKPEDTAVYYCAADYYSYVVGRIYYWGQGTQVNVSS | high polyreactivity
QVQLVESGGRLVQAGGSLRLSCAASGSTFTVYAMGWYRQAPGKESELVAVITGSGGSTYYADSVKGRFTISRDNAKNTVYLQINSLKPEDTAVYYCAKEPGENWTVSWRDFDYWGQGTQVTVSS | low polyreactivity
QVQLVESGGRLVQAGGSLRLSCAASGSTFYTNAMGWYRQSPGKEMELVAAITSNGDSTYYADSVKGRFTISRDNAKNTVYLQMNSLKPEDTAVYYCAAREFYGGYDNNYDYWGQGTQVTVSS | low polyreactivity
QVQLVESGGRLVQAGGSLRLSCAASGSTIYPNAMGWYRPAPGTERELVAGITTIGGSTYYADSVKGRFTISRDNAKNTVYLQMNSLKPEDTAVYYCAARWTFSTWIGFDYWGQGTQVTVSS | low polyreactivity
QVQLVESGGRLVQAGGSLRLSCAASGSTSTLYAMGWYRQAPGKERELVAAISKSGGRTYYADSVKGRFTISRDNAKNTVYLQMNSLKPEDTAVYYCNTVPGRYRTFDYWGQGTQVTVSS | high polyreactivity
QVQLVESGGRLVQAGGSLRLSCAASGTFDLSAMGWYSQAPGKERELVAAITYRGDTTYYADSVKGRFTISRDNAKNTVYLQMNSMKPEDTAVYYCAAEWYYQFSSWYDYWGQGSQVTVSS | high polyreactivity
QVQLVESGGRLVQAGGSLRLSCAASVITFLGNAMGWYRQAPGKERELVAAISASGGRTYYADSVKGRFTISRDNAKNTVYLLMNSLKPEDTAVYYCAAASKPWYYYWGQGTQVTVSS | high polyreactivity
QVQLVESGGRLVQAGGSLRLSCAAYGSTFQVNAMGWYRQAPGKERELVAAISRGGGSTYYADSVKGRFTISRDNAKNTVYLQMNSLKPEETAVYYCAAVYYRRISQGDTQTYYQYNYWGQGTQVTVSS | high polyreactivity
QVQLVESGGRLVQAGGSLRLSCAPSGFIFGYYAMGWYRQAPGKERELVAAISPSGGRTYYADSVKGRFTISRDNAKITVFLQMNSLKPEDTAVYYCAAEYAYSLDPEEDYWGQGTQVTVSS | high polyreactivity
QVQLVESGGRLVQAGGSLRLSCDPSGRTFWYYAMGWYRQAPGKERELVASISLSGSRTNYADSVKGRFTISRDNAKNTVYLQMNSLKPEDTAVYYCAADNFRQFGEYDYWGQGTQVTLSS | low polyreactivity
QVQLVESGGRLVQAGGSLRLSCSASGFTLIHYAMGWYRQAHGKERELVAGITTSGGSTYYADSVKGRFTISRDNAKNTVYLQMNSLKPEDTAFYYCAAGSTTGQTGKVGYWGQGTQVTVSS | high polyreactivity
QVQLVESGGRLVQAGGSLRLSCSASGSTFRRNAMGWYRQAPGKERELVAAISWSSTRTYYADSVKGRFTISRDNAKNTVYLQMNSLKPEDTAVYYCAADSYGGGFQLYSYVSGLYYWGEGTQVTVSS | high polyreactivity
QVQLVESGGRLVQAGGSLRLSWAASGRILWSNRMGWYRQAPGKERELVAAITYSGDTTYYADSVKGRFTISRDNEKNTVYLQMNSLKPDDTAVYYCAVEDAGQGGDYWGQGSQVTVSS | low polyreactivity
QVQLVESGGRLVQAGGSLSLSCAASGFIFWSYAMGWYRPAPGKERELVAAISARGGSTYYADSVKGRFTISRDNAKNTVYLQMTSLKPEDTAVYYCATYPTYEYDYWGQGTQVTLSS | high polyreactivity
